Laboratory results from patent publication US11566081B2, “Anti-acetaminophen antibodies and acetaminophen protein adducts” (BioVentures, LLC, priority 2014, dated 2023).

B1: 22-8: rabbit monoclonal antibody to acetaminophen-protein adduct, immunogen CP-2IT-APAP; light chain SEQ ID NO:15, heavy chain SEQ ID NO:16 (antibody)
heavy: METGLRWLLLVAVLKGVQCQSLEESGGRLVTPGGSLTLTCTASGLTINNYYIIWVRQAPGKGLKYIGITYGGGFAYYASWAKGRFTISRTSTTVDLKMTSLTAEDTATYFCVRAAAGGAYDLWGQGTLVTVSSGQPKAPSVFPLAPCCGDTPSSTVTLGCLVKGYLPEPVTVTWNSGTLTNGVRTFPSVRQSSGLYSLSSVVSVTSSSQPVTCNVAHPATNTKVDKTVAPSTCSKPTCPPPELLGGPSVFIFPPKPKDTLMISRTPEVTCVVVDVSQDDPEVQFTWYINNEQVRTARPPLREQQFNSTIRVVSTLPIAHQDWLRGKEFKCKVHNKALPAPIEKTISKARGQPLEPKVYTMGPPREELSSRSVSLTCMINGFYPSDISVEWEKNGKAEDNYKTTPAVLDSDGSYFLYSKLSVPTSEWQRGDVFTCSVMHEALHNHYTQKSISRSPGK
light: MDTRAPTQLLGLLLLWLPGATFAIEMTQTPSPVSAVVGGTVTINCQSSQNVFRKNYLSWFQQKPGQPPKLLISYIDSLTSGVPSRFSGSGAGTQFTLTISDVQCDDAATYYCLGVDGSANDATFGGGTEVVVEGDPVAPTVLIFPPAADQVATGTVTIVCVANKYFPDVTVTWEVDGTTQTTGIENSKTPQNSADCTYNLSSTLTLTSTQYNSHKEYTCKVTQGTTSVVQSFNRGDC
B2: 14-12: rabbit monoclonal antibody to acetaminophen-protein adduct, immunogen CP-2IT-APAP; light chain SEQ ID NO:13, heavy chain SEQ ID NO:14 (antibody)
heavy: METGLRWLLLVAVLKGVQCQSVEESGGRLVTPGTPLTLTCTVSGFSINAYGINWVRQAPGKGLEYIGFSAPHTASYARWTKGRFTMSRTSTTVDLRMTSPTTEDTATYFCARYDRGGMVFNLWGQGTLVTVSSGQPKAPSVFPLAPCCGDTPSSTVTLGCLVKGYLPEPVTVTWNSGTLTNGVRTFPSVRQSSGLYSLSSVVSVTSSSQPVTCNVAHPATNTKVDKTVAPSTCSKPTCPPPELLGGPSVFIFPPKPKDTLMISRTPEVTCVVVDVSQDDPEVQFTWYINNEQVRTARPPLREQQFNSTIRVVSTLPIAHQDWLRGKEFKCKVHNKALPAPIEKTISKARGQPLEPKVYTMGPPREELSSRSVSLTCMINGFYPSDISVEWEKNGKAEDNYKTTPAVLDSDGSYFLYSKLSVPTSEWQRGDVFTCSVMHEALHNHYTQKSISRSPGK
light: MDTRAPTQLLGLLLLWLPGATFALVMTQTPSSVPAAVGGTVTIGCQASQSISRQVSWYQQKPGQPPKLLIYRASTLASGVSSRFKGSGSGTEFTLTISGVQCDDAATYYCLGIVTDRIADGLAFGGGTEVVVKGDPVAPTVLIFPPAADQVATGTVTIVCVANKYFPDVTVTWEVDGTTQTTGIENSKTPQNSADCTYNLSSTLTLTSTQYNSHKEYTCKVTQGTTSVVQSFNRGDC

System: acetaminophen protein adduct (BSA-APAP, 3-(cystein-S-yl)acetaminophen)
Test: Competitive ELISA: relative inhibitory potency of APAP-protein adduct (BSA-APAP) versus free APAP
Assay type: binding
Conditions: inhibitors BSA-APAP vs APAP on a molar basis, clone supernatant final dilution 1:500
Source text: Tissue culture supernatants from Rabbit monoclonal antibody clone 14-12 at a dilution of 1:250 was mixed with serial 4-fold dilutions of inhibitor (either BSA-APAP or APAP) such that the final dilution of RmAb was 1:500. The final concentrations of APAP were 80, 20, 5, 1.25, and 0.31 nmole per ELISA well. The final concentrations of APAP-BSA (quantified by HPLC-EC as APAP-Cys from the hydrolyzed protein) were 10, 2.5, 0.625, 0.156, and 0.04 pmole per ELISA well.
Synthetically prepared acetaminophen-protein adduct (BSA-APAP) and free drug (APAP) were evaluated in competitive ELISA to determine their relative capacity, on a molar basis, to inhibit the binding of clone 14-12 rabbit monoclonal antibody to solid-phase immobilized acetaminophen protein adduct. […] Restated, clone 14-12 antibody has approximately 8000 times more affinity for acetaminophen protein adduct than it does for free APAP as measured in this ELISA context.
The competitive ELISA was repeated with rabbit monoclonal antibody (RMAb) 14-12 and rabbit monoclonal antibody (RMAb) 22-8. […] After incubation and washing, bound RMAb was detected using Goat anti-Rabbit-IgG conjugated to HRP followed by the substrate TMB and color development was determined using an ELISA plate reader. […]

Molecule	times more affinity for acetaminophen protein adduct than for free APAP
B1	approximately 1250 times
B2	approximately 8000 times
